According to IntAct's records for PubMed 20562859:

Experiments:
nek9_human NEK9 = biological target: T1, nek9_human NEK9 (UniProt Q8TD19)
T1 sequence: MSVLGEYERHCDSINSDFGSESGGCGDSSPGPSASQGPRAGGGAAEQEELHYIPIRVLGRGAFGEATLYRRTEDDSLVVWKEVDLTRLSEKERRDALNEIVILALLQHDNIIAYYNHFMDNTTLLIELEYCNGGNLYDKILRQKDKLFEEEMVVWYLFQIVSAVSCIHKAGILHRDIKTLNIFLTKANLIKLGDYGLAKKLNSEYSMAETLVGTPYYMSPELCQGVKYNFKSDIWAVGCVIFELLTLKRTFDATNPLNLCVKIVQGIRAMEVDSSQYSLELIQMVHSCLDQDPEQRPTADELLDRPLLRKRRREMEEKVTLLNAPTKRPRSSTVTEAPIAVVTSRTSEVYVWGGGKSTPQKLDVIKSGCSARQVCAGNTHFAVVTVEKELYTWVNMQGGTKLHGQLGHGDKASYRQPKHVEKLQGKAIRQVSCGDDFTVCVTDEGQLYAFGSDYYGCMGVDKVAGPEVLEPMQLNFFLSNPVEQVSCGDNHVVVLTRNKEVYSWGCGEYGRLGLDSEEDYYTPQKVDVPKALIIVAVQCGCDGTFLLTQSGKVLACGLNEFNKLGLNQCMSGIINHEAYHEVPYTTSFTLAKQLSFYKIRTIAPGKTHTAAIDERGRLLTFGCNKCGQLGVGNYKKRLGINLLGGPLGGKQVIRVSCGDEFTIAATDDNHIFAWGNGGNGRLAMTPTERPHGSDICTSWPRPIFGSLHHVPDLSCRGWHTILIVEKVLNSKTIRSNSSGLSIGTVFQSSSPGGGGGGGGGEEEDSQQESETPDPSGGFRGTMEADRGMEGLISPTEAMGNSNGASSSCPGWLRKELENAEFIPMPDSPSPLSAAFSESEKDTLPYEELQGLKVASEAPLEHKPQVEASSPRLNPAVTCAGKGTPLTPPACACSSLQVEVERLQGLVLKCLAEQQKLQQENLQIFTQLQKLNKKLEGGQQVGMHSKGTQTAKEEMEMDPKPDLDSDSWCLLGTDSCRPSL

kbtb6_human KBTBD6 = biological target: T2, kbtb6_human KBTBD6 (UniProt Q86V97)
T2 sequence: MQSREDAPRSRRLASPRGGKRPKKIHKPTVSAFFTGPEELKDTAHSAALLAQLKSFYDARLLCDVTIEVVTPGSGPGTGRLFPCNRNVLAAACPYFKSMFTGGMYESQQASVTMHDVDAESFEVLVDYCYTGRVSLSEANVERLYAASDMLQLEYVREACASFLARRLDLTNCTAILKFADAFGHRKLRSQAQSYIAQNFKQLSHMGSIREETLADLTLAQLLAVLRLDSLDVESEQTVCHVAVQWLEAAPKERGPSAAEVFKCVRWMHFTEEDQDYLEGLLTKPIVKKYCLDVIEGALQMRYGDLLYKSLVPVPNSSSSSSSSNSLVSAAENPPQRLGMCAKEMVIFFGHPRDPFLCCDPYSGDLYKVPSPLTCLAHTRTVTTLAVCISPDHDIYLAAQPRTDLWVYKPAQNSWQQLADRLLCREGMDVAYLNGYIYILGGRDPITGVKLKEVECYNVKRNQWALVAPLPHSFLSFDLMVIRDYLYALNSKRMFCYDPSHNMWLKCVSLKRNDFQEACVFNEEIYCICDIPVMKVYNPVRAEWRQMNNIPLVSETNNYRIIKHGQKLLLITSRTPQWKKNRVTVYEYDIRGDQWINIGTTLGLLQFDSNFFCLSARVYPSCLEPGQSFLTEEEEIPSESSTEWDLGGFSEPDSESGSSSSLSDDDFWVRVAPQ

fyco1_human FYCO1 = biological target: T3, fyco1_human FYCO1 (UniProt Q9BQS8)
T3 sequence: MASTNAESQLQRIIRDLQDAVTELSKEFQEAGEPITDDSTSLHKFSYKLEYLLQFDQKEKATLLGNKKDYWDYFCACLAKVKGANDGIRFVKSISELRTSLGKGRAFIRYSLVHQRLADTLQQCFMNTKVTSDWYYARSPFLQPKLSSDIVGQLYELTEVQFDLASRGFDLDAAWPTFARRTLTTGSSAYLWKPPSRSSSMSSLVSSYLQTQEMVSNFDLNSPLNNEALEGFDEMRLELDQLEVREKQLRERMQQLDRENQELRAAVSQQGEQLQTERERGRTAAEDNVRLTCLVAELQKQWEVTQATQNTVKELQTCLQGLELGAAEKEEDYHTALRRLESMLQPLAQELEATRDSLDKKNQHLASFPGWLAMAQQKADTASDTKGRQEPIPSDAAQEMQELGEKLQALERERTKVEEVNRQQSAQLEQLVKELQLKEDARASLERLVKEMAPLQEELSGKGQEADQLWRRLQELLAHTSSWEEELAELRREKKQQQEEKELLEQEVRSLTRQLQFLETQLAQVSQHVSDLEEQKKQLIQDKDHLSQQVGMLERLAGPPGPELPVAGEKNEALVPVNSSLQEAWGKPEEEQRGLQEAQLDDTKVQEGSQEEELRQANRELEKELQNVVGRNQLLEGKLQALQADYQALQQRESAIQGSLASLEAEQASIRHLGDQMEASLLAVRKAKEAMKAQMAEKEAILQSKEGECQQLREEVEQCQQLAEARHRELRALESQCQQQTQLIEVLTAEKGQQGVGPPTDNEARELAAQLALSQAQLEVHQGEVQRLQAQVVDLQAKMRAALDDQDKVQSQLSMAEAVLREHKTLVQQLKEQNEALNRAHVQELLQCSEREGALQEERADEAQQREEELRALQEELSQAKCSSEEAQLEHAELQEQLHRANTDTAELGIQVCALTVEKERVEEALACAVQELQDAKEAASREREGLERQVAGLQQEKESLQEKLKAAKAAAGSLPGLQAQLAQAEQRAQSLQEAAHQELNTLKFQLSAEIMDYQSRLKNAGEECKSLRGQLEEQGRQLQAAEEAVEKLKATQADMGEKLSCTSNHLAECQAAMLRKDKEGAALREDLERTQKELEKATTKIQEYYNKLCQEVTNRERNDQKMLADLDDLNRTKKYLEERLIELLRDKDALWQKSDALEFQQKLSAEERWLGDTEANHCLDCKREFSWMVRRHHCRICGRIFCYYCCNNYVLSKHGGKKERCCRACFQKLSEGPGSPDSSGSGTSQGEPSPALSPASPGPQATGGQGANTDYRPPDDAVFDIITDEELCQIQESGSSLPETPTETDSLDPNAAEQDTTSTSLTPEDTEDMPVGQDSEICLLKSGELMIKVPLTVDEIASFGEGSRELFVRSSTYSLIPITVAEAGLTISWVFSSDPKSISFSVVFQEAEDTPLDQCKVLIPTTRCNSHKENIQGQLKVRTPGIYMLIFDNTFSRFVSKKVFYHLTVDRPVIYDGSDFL

**Q.** Which results are given for “Microtubule-associated protein 1 light chain 3 beta (Homo sapiens) (from UniProt Q9GZQ8) F52A;L53A”?
**A.** effect of a mutation on the interaction (nek9_human NEK9): decreasing interaction; effect of a mutation on the interaction (kbtb6_human KBTBD6): decreasing interaction

**Q.** Which results are given for “Microtubule-associated protein 1 light chain 3 beta (Homo sapiens) (from UniProt Q9GZQ8) R69A”?
**A.** effect of a mutation on the interaction (fyco1_human FYCO1): decreasing interaction; effect of a mutation on the interaction (kbtb6_human KBTBD6): disrupting interaction
